Columns and labels:
[1] = molecular target: T1, Human CD27 ECD, monomeric soluble (construct limits not stated) (human, UniProt P26842 20-191); experiment: Biacore SPR, purified mAb
T1 construct: extracellular domain; target of the Biacore assays; also called monomeric soluble CD27; CD27-His

[2] = molecular target: T1, Human CD27 ECD, monomeric soluble …; experiment: Biacore SPR, purified mAb; reference M158

T1 sequence (P26842 20-191): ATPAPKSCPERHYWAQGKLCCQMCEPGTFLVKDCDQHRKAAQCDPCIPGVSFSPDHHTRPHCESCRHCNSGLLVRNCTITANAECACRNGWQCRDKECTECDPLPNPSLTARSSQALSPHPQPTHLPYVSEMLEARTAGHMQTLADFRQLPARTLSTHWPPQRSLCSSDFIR

B1: M171 (antibody, V domains shown)
VH: EVQLVQSGAEVKKPGESLKISCKGSGYAFSSSWMNWVRQMPGKGLEWMGRIYSGDGDTNYNGKFKGQVTISADKSISTAYLQWSSLKASDTAMYYCARSDYYGDYGFAYWGQGTLVTVSS
VL: DIQMTQSPSSLSASVGDRVTITCKASQSVDYAGDSYMNWYQQKPGKAPKLLIYAASNLESGVPSRFSGSGSGTDFTLTISSLQPEDFATYYCQQSNEDPYTFGQGTKVEIK
notes: isotype not restated (path 2); also called H221, L220
**Q.** B1 was tested. Which Kd [1] did it give?
**A.** 0.234 nM

**Q.** What about the koff [1] of the same binder?
**A.** 0.000358 s⁻¹

**Q.** And the kon [1]?
**A.** 1.53e+06 M⁻¹ s⁻¹

**Q.** And the “fold improvement in KD against the corresponding VH1-46 variant” value [2]?
**A.** 2 fold

— patent publication US20130243795A1 (Janssen / Centocor, published 2013)
